In patent US20110142851A1 (EMERGENT PRODUCT DEVELOPMENT SEATTLE, published 2011):

T1: hu HIL6 Fc dimer (dimeric human HIL6/mouse IgG Fc fusion protein) (human)
T1 construct: also called human hyper-IL6 (IL6R-IL6-mIgG); dimeric HIL6
T1 chain: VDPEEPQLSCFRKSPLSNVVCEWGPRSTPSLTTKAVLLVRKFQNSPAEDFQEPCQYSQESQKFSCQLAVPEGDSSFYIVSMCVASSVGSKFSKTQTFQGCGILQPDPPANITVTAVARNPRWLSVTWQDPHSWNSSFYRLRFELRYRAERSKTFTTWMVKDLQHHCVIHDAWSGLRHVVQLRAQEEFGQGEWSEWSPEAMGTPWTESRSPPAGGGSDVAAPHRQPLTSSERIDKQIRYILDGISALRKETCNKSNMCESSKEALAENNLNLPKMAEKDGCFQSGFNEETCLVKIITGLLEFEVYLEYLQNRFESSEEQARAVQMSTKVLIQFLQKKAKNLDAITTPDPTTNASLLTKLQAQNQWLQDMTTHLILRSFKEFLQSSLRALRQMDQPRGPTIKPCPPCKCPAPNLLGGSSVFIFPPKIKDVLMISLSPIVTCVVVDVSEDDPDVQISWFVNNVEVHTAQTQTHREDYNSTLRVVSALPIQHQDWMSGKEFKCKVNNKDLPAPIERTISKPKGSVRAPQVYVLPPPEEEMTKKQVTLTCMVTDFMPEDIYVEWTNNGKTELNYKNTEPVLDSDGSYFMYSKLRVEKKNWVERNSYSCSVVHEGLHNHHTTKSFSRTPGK

T2: human gp130-Fc chimera (R&D Systems) (human, UniProt P40189 23-619)
T2 construct: Bought product; also called Human gp130-human IgG Fc fusion protein; soluble gp130; not shown: human IgG Fc
T2 sequence (looked up): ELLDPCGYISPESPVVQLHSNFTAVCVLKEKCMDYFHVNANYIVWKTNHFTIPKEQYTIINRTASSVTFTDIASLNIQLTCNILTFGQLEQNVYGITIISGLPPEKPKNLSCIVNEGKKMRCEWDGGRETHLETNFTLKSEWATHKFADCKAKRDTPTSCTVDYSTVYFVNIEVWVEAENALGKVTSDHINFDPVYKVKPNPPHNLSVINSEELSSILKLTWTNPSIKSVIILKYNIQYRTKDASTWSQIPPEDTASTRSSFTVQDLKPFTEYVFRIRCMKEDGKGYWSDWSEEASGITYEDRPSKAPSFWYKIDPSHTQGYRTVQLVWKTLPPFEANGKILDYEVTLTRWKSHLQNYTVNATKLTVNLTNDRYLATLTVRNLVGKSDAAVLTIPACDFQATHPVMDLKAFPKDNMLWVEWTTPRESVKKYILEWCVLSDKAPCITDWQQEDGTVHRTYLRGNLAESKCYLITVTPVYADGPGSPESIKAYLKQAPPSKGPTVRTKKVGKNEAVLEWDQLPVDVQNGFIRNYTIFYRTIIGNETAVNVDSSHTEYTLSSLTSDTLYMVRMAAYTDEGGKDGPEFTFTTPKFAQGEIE

B1: SEQ ID NO: 679 (scFv) (scFv)
scFv: EVQLLESGGGLVQPGGSLRLSCAASGFTFSWYLMHWVRQAPGKGLEWVSGIWPSGGHTLYADSVKGRFTISRDNSKNTLYLQMNSLRAEDTAVYYCAREPLLWFGELSYNWFDPWGQGTLVTVSSGGGGSGGGGSGGGGSQDIQMTQSPSSVSASVGDRVTITCRASQGISSWLAWYQQKPGKAPKLLIYAASSLQSGVPSRFSGSGSGTDFTLTISSLQPEDFATYYCQQANSFPLTFGGGTKVEIK
B2: hu HIL6 AFH monomer (other)
chain: PEEPQLSCFRKSPLSNVVCEWGPRSTPSLTTKAVLLVRKFQNSPAEDFQEPCQYSQESQKFSCQLAVPEGDSSFYIVSMCVASSVGSKFSKTQTFQGCGILQPDPPANITVTAVARNPRWLSVTWQDPHSWNSSFYRLRFELRYRAERSKTFTTWMVKDLQHHCVIHDAWSGLRHVVQLRAQEEFGQGEWSEWSPEAMGTPWTESRSPPAGGGSDVAAPHRQPLTSSERIDKQIRYILDGISALRKETCNKSNMCESSKEALAENNLNLPKMAEKDGCFQSGFNEETCLVKIITGLLEFEVYLEYLQNRFESSEEQARAVQMSTKVLIQFLQKKAKNLDAITTPDPTTNASLLTKLQAQNQWLQDMTTHLILRSFKEFLQSSLRALRQM
B3: SEQ ID NO: 671 (scFv) (scFv)
scFv: EVQLLESGGGLVQPGGSLRLSCAASGFTFSFYQMHWVRQAPGKGLEWVSGIYPSGGYTKYADSVKGRFTISRDNSKNTLYLQMNSLRAEDTAVYYCARDLGYGSSWYYFDYWGQGTLVTVSSGGGGSGGGGSGGGGSQSALTQPASVSGSPGQSITISCSGTDSDVGGYNHVSWYQQHPGKAPKLIIYDVDHRPSGISNRFSGSKSGNTASLTISGLQAEDEADYYCSSYRSGSTYVFGTGTKVTVL
B4: TRU(S6)-1002 (Fc fusion)
chain: EVQLLESGGGLVQPGGSLRLSCAASGFTFSFYQMHWVRQAPGKGLEWVSGIYPSGGYTKYADSVKGRFTISRDNSKNTLYLQMNSLRAEDTAVYYCARDLGYGSSWYYFDYWGQGTLVTVSSGGGGSGGGGSGGGGSQSALTQPASVSGSPGQSITISCSGTDSDVGGYNHVSWYQQHPGKAPKLIIYDVDHRPSGISNRFSGSKSGNTASLTISGLQAEDEADYYCSSYRSGSTYVFGTGTKVTVLTGEPKSSDKTHTCPPCPAPEAAGAPSVFLFPPKPKDTLMISRTPEVTCVVVDVSHEDPEVKFNWYVDGVEVHNAKTKPREEQYNSTYRVVSVLTVLHQDWLNGKAYACAVSNKALPAPIEKTISKAKGQPREPQVYTLPPSRDELTKNQVSLTCLVKGFYPSDIAVEWESNGQPENNYKTTPPVLDSDGSFFLYSKLTVDKSRWQQGNVFSCSVMHEALHNHYTQKSLSLSPGK
notes: SMIP (scFv - linker - CH2CH3); also called S6-A2
B5: TRU(S6)-1013 (Fc fusion)
chain: EVQLLESGGGLVQPGGSLRLSCAASGFTFSGYVMGWVRQAPGKGLEWVSSISPSGGYTLYADSVKGRFTISRDNSKNTLYLQMNSLRAEDTAVYYCARAFSTRWYWGAFDIWGQGTMVTVSSGGGGSGGGGSGGGGSQDIQMTQSPATLSLSPGERATLSCRASQSVRSYLAWYQQKPGQAPRLLIYDASNRATGIPARFSGSGSGTDFTLTITSLQPEDIATYYCQQYDNLPLTFGGGTKVEIKTGEPKSSDKTHTCPPCPAPEAAGAPSVFLFPPKPKDTLMISRTPEVTCVVVDVSHEDPEVKFNWYVDGVEVHNAKTKPREEQYNSTYRVVSVLTVLHQDWLNGKAYACAVSNKALPAPIEKTISKAKGQPREPQVYTLPPSRDELTKNQVSLTCLVKGFYPSDIAVEWESNGQPENNYKTTPPVLDSDGSFFLYSKLTVDKSRWQQGNVFSCSVMHEALHNHYTQKSLSLSPGK
notes: SMIP (scFv - linker - CH2CH3)
B6: sIL6R Fc dimer (Fc fusion, UniProt P08887 20-358, looked up)
chain: LAPRRCPAQEVARGVLTSLPGDSVTLTCPGVEPEDNATVHWVLRKPAAGSHPSRWAGMGRRLLLRSVQLHDSGNYSCYRAGRPAGTVHLLVDVPPEEPQLSCFRKSPLSNVVCEWGPRSTPSLTTKAVLLVRKFQNSPAEDFQEPCQYSQESQKFSCQLAVPEGDSSFYIVSMCVASSVGSKFSKTQTFQGCGILQPDPPANITVTAVARNPRWLSVTWQDPHSWNSSFYRLRFELRYRAERSKTFTTWMVKDLQHHCVIHDAWSGLRHVVQLRAQEEFGQGEWSEWSPEAMGTPWTESRSPPAENEVSTPMQALTTNKDDDNILFRDSANATSLPVQD
notes: not shown: Fc

What was measured:
[1] = target: T1, hu HIL6 Fc dimer (dimeric human …); experiment: SPR Biacore T100, HIL6-mouse Fc captured by anti-mouse Fc, scFv injected
[2] = target: T2, human gp130-Fc chimera (R&D Systems); experiment: SPR Biacore T100, binder captured by anti-human Fc
[3] = target: B2; experiment: SPR Biacore T100, binder captured by anti-human Fc
Description: (§1) Binding affinities and kinetic rate constants of interaction of hyper-IL6 (HIL6; monomer or dimer), and its components IL6 and sIL6R, with different anti-HIL6 binding domains in scFv, SMIP, Xceptor and reverse Xceptor formats were determined using a Biacore® T100 instrument (GE Healthcare, Piscataway, N.J.).
(§2) Anti-HIL6 SMIPS, Xceptors, and reverse Xceptors were captured by a monoclonal mouse anti-human Fc, which was covalently conjugated to a carboxylmethyl dextran (CM4) surface via amines using N-ethyl-N′-(3-dimethylaminopropyl)-carbodiimide hydrochloride and N-hydroxysuccinimide. The unoccupied sites of the activated surface were blocked by ethanolamine. […] In every cycle, three different HIL6 binders were captured on flow cells 2, 3 and 4, while flow cell 1 was used as the reference cell. For each cycle, a single concentration of a single HIL6-related molecule was injected for 150 seconds at 35 microliters per minute, and then allowed to dissociate for 300 seconds. At the end of the cycle, the surface was regenerated gently using 3M MgCl₂, which dissociates protein bound to anti-hFc capture antibody. Multiple cycles were performed to study binding of monomeric or dimeric HIL6 at different concentrations, in the range of 0-100 nM, for each set of three HIL6 binders captured. […] The experiment was performed at 25° C. Signal associated with binding to the reference cell was used to subtract for bulk refractive changes and blank (buffer-only) injections were used to correct for drift and system noise. The kinetic parameters and affinities were determined using BIAevaluation software. Anti-HIL6 scFv molecules were analyzed in the reverse orientation using a dimeric human HIL6/mouse IgG Fc fusion protein captured by an immobilized rabbit polyclonal anti-mouse IgG Fc antibody on the surface and injecting different concentrations of scFv over the surface. For the HIL6 components IL6 (eBioscience, catalog no. 14-8069) and sIL6R, a single 100 nM injection was performed to obtain a qualitative assessment of binding.

[4] = target: T1, hu HIL6 Fc dimer (dimeric human …); experiment: SPR Biacore T100, binder captured by anti-human Fc
Description: as §1, §2

[5] = target: T3, recombinant human IL6 (human, UniProt P05231 30-212); experiment: SPR Biacore T100, binder captured by anti-human Fc
T3 construct: also called rhIL6; IL6 monomer
Description: as §1, §2

[6] = target: T4, IL6:sIL6R complex (human, UniProt P05231 30-212; P08887 20-358); experiment: SPR Biacore, SMIP captured by anti-human Fc, complex injected
T4 construct: Non-covalent complex made by mixing 50 nM of each; about 30 nM complex estimated
Description: In every cycle, three different HIL6 binders were captured on flow cells 2, 3 and 4, while flow cell 1 was used as the reference cell. For each cycle, a single concentration of a single HIL6-related molecule was injected for 150 seconds at 35 microliters per minute, and then allowed to dissociate for 300 seconds. At the end of the cycle, the surface was regenerated gently using 3M MgCl₂, which dissociates protein bound to anti-hFc capture antibody. Multiple cycles were performed to study binding of monomeric or dimeric HIL6 at different concentrations, in the range of 0-100 nM, for each set of three HIL6 binders captured. […] The experiment was performed at 25° C. Signal associated with binding to the reference cell was used to subtract for bulk refractive changes and blank (buffer-only) injections were used to correct for drift and system noise. The kinetic parameters and affinities were determined using BIAevaluation software. Anti-HIL6 scFv molecules were analyzed in the reverse orientation using a dimeric human HIL6/mouse IgG Fc fusion protein captured by an immobilized rabbit polyclonal anti-mouse IgG Fc antibody on the surface and injecting different concentrations of scFv over the surface. For the HIL6 components IL6 (eBioscience, catalog no. 14-8069) and sIL6R, a single 100 nM injection was performed to obtain a qualitative assessment of binding.

[7] = target: B6; experiment: SPR Biacore T100, binder captured by anti-human Fc
Description: as §1, §2

| Kd [1] [nM] | Kd [3] [nM] | Kd [4] [nM] | binding result [5] | Binder | other results |
| --- | --- | --- | --- | --- | --- |
| 1.46 |  |  |  | B1 |  |
|  |  |  |  | B2 | Kd [2]: 0.68 nM |
| 1.04 |  |  |  | B3 |  |
|  | 2 | 1.3 | no binding (tested: 100 nM) | B4 | binding result [6]: binds |
|  | 31 | 200 | no binding (tested: 100 nM) | B5 | binding result [7]: no binding (tested: 100 nM) |
|  |  |  |  | B6 | binding result [2]: no binding (tested: 100 nM) |
